Data as given in the DeepSol protein solubility set.

Assay: soluble on expression in E. coli; label from the status in PepcDB or PDB records

Sequence	soluble on expression in E. coli
MAHHHHHHMSTSVVARHPQMRPSRKRQAQRQHPRQQRSVAHKAQRAPSSGHGASSVEHLPRDAVVHVALRQQHRPAGQAHSRIKRHRVVLRRQKVVPHKRHGGARHTHSPTHRHRVLAQQEVAVNKRHHGAAAGRNAALHRHAQPQRRLHQQSVHVQRTARRQRHAANHQHANSVAEHSRHLRSRNCQHAPRQIHVVHHEARRRVAKVVGAAVRNTRLCYQHRVHHSDARARRKPVRHQHTAARTRLKTADQHINALASRRVGPPPNNVQARSAQKRAVRQRHVAHAP	not soluble
MSEANSNSEFQTFIEQENQKAAIQAAISKLTETCWDKCVGKPGSKLDRAESECIANCAERFLDSSSFIMQRLMKKQ	soluble
MTEFELPPKYITAANDLRSDTFTTPTAEMMEAALEASIGDAVYGEDVDTVRLEQTVARMAGKEAGLFCVSGTLSNQIAIRTHLMQPPYSILCDYRAHVYTHEAAGLAILSQAMVVPVVPSNGDYLTLEDIKSHYVPDDGDIHGAPTRLISLENTLHGIVYPLEELVRIKAWCMENGLKLHCDGARIWNAAAQSGVPLKQYGEIFDSISICLSKSMGAPIGSVLVGNLKFVKKATHFRKQQGGGIRQSGMMARIALVNINNDWKSQLLYSHSLAHELAEYCEAKGIPLESPADTNFVFINLKAARMDPDVLVKKGLKYNVKLMGGRVSFHYQVTRDTLEKVKLAISEAFDYAKEHPFDCNGPTQIYRSESTEVDVDGNAIREIKTYKY	soluble
MATIRIHDEANTTIENQEEVASFLDSQEVIYEQWDITRLPEHLSEKYDLTEEEKQQILDTFETEIKDISTRRGYKAQDVISLSDSNPKLDELLENFKREHHHTDDEVRFIVSGHGIFVIQGQDGTFFDVRLNPGDLISVPENIRHYFTLQEDRKVVAVRIFVTTEGWVPIYEKDSVNQLEHHHHHH	not soluble
MEVAVEKAVAAAAAASAAASGGPSAAPSGENEAESRQGPDSERGGEAARLNLLDTCAVCHQNIQSRAPKLLPCLHSFCQRCLPAPQRYLMLPAPMLGSAETPPPVPAPGSPVSGSSPFATQVGVIRCPVCSQECAERHIIDNFFVKDTTEVPSSTVEKSNQVCTSCEDNAEANGFCVECVEWLCKTCIRAHQRVKFTKDHTVRQKEEVSPEAVGVTSQRPVFCPFHKKEQLKLYCETCDKLTCRDCQLLEHKEHRYQFIEEAFQNQKVIIDTLITKLMEKTKYIKFTGNQIQNRIIEVNQNQKQVEQDIKVAIFTLMVEINKKGKALLHQLESLAKDHRMKLMQQQQEVAGLSKQLEHVMHFSKWAVSSGSSTALLYSKRLITYRLRHLLRARCDASPVTNNTIQFHCDPSFWAQNIINLGSLVIEDKESQPQMPKQNPVVEQNSQPPSGLSSNQLSKFPTQISLAQLRLQHMQQQVMAQRQQVQRRPAPVGLPNPRMQGPIQQPSISHQQPPPRLINFQNHSPKPNGPVLPPHPQQLRYPPNQNIPRQAIKPNPLQMAFLAQQAIKQWQISSGQGTPSTTNSTSSTPSSPTITSAAGYDGKAFGSPMIDLSSPVGGSYNLPSLPDIDCSSTIMLDNIVRKDTNIDHGQPRPPSNRTVQSPNSSVPSPGLAGPVTMTSVHPPIRSPSASSVGSRGSSGSSSKPAGADSTHKVPVVMLEPIRIKQENSGPPENYDFPVVIVKQESDEESRPQNANYPRSILTSLLLNSSQSSTSEETVLRSDAPDSTGDQPGLHQDNSSNGKSEWLDPSQKSPLHVGETRKEDDPNEDWCAVCQNGGELLCCEKCPKVFHLSCHVPTLTNFPSGEWICTFCRDLSKPEVEYDCDAPSHNSEKKKTEGLVKLTPIDKRKCERLLLFLYCHEMSLAFQDPVPLTVPDYYKIIKNPMDLSTIKKRLQEDYSMYSKPEDFVADFRLIFQNCAEFNEPDSEVANAGIKLENYFEELLKNLYPEKRFPKPEFRNESEDNKFSDDSDDDFVQPRKKRLKSIEERQLLK	soluble
MAQMYFYYSAMNAGKSTTLLQSSFNYQERGMTPVIFTAALDDRYGVGKVSSRIGLQSDAHLFRPDTNLYQEIAALHEVEKRHCIL	not soluble
SASASTQPAALSAEQAKVVLAEVIQAFSAPENAVRMDEARDNACNDMGKMLQFVLPVATQIQQEVIKAYGFSCDGEGVLKFARLVKSYEAQDPEIASLSGKLKALFLPPMTLPPHGPAAGGSVAAS	soluble
MYSIEVRTHSALHVVKGAVVKVLGSEAKWTYSTYVKGNKGVLIVKFDRKPSDEEIREIERLANEKVKENAPIKIYELPREEAEKMFGEDMYDLFPVPEDVRILKVVVIEDWNVNACNKEHTKTTGEIGPIKIRKVRFRKSKGLLEIHFELLELENPSLEHHHHHH	soluble
TPDTLELSLDKPAYRPGETAQLRIVPRAPGKALVTVLSNRVIAMKAVEVGEGETLVDLPVTDEWGTGVYVTATLLRPMDVAAGRNPTRALGLAHAAIDPGEKRLGATIETAAEAAPRGPMEIAVKVEGTAPGETVHATIAAVDVGILNLTGF	not soluble
MSLADPGREGHLEQRILQVLTEAGSPVKLAQLVKECQAPKRELNQVLYRMKKELKVSLTSPATWCLGGTDPEGEGPAELALSSPAERPQQHAATIPETPGPQFSQQREEDIYRFLKDNGPQRALVIAQALGMRTAKDVNRDLYRMKSRHLLDMDEQSKAWTIYRPEDSGREGHHHHHH	soluble
MGSDKIHHHHHHMTTEIRALYTRLPAIDRLLRDPAFSPLLAQHGHSQVVAQLRQMLDEAREQISQRQTLPDWSHDWQHACEQRLTAGQRSALRPVFNLTGTVLHTNLGRAIQAESAVEAVASAMRAPVTLEYDLDDAGRGHRDRAIADLLCQITGAEDACIVNNNAAAVLLMLAATASGREVVVSRGELVEIGGAFRIPDVMRQAGCQLHEVGTTNRTHAKDYRQAVNDNTALLMKVHTSNYSIEGFTKAVDEAELAAIGRELDVPVVADLGSGSLVDLSQYGLPKEPMPQEMIAAGVSLVSFSGDKLLGGPQAGIIVGKRALIAQLQSHPLKRALRADKMTLAALEATLRLYQHPEALREKLPTLRLLTRPAEEIRRLAERLQPDLAAHYADFAVSVAACQSQIGSGSLPVDRLPSAALTFTPHDGRGSRLEALAARWRALPCPVIGRIYDGRLWLDLRCLEDETRFMEMLLR	not soluble
MATEAPTQSYSEQWYWDDRYKNESEPFDWYQKYSPLAPLINLYVPQRNQRVLVIGCGNSAFSEGMVDDGYEDVVSIDISSVVIDTMIKKYSDRPQLKYLKMDVRDMKAFEDASFDAVIDKGTLDSILCGSNSRQYSTQMLEEVWRVLKDKGVYILITYGAPIYRLRLFKESCSWTTKLHVIDKSLTDQPLDTPKWELTKPLPLDADGSSVESAIGKNPDVHYIYVCIKDESSKMEADAA	soluble
MEKITFEQVKEAVFHEKMSNGLQVYLLPKQGFSKTYAVFTTNYGAIDNNFVPIGETEFTKVPDGIAHFLEHKMFEKEDGDVFFKFGEKGAFTNAFTSFTKTAYLFSSTSRVEENLETLIDFVQEPYFTEETVEKEKGIIGQEIRMYDDDPDFRAYFGVIENMYHNHPVKIDIAGTVESIAEINKDLLYLCYNTFYHPSNMVLFVVGNLEPEEMMNQIRANQAKKDFTEAAPIKRHFPEEPKTVAVKERKIHFPVQIAKNMVGIKEDIGSLEGQVALKQEIIGDVALEMLFGTTSDTYLELYNQGIIDDSFGYDYTLQDSFSFVLVGGDAKDPDMQTTKIIEAIQAAAKNGLNEADLALVKRKRIGQFLRSLNSPEFIANQFSQYVMKSASLFDILPLMETVTLEEVNNFVKNLDSEERTTSFQLLPEK	not soluble
MTTQTIDSAPHATWFVGASYGGTDDQMPRFLAEGIWENGYDDKLLEVVRSMRPGERIAIKSSYTRKHGLPFDSRGRAVSVMGIKAVGTITENLNDGKRVKVDWAKVEPVREWYFYTHRATIWRVLPGEWMNDALIAFAFDGKPQDVDRFRNEPFWRERYGTTSPEKQRFEWTDFYEAVAEKLLAHADDRTPLIEGIHEIASRVPGLTYLQDKFPDGTSGPLRDICPFTTMGTFNRSMTDANRKTLAGELAKLLGVTVPVPPSFEGIPVLNNQRSWFFAYADKRGAGDIDALWKVFVAASKMVDGDQLDTRDAFIRAYDEATQVWGVAWNLSTGLYWAHPWEFLTLDSQSRHYINKRLGLNVAISGQQGPCDGRAYLKLLDDLRSRFGEDGYPVHSFPDLSLASWMYKDPVDEPVPAGDIGTNAGAEQETEGEVREAFQVAAPIVPYSVEDILKDGCFLERAEIDRLLDRLRTKKNLILQGPPGTGKTWLAKRLAFALMGQKDDSKVRAVQFHPNLSYEDFVRGWRPTGEGKLSLADGVFMEAIKAASKDPSSKFVVVIEEINRGNPAQIFGELLTLLEAGKRTPNEALELCYPDADGKRRPVHIPENLYVVGTMNIADRSLALVDLALRRRFAFVGLEPRLGQVWRDWVVKECAVDPGLVADIERRIAELNDQIAADARLGKQFRIGHSYVTPAHRLEAGDTKKWFLQVVETEIGPLLDEYWFDAPDEAQKAIARLTQGWLEHHHHHH	soluble
MNTVADVMAGNDGEYCFHARTGKYGVYLKQDWRNEYNVGDIAVYEDSKPGTLNDFLIAPDEGDLKPDVVKRFEEMVAQAQQSAGAAAGNAQQTAQDVAAAATARDDAQRFAEKARQDATVTAEDRKATAEDVTSTGANAAAAGQSAQDAAGYARAAEQAKNDIDAALTGTLKTANHLSETAAAGEKAQQKSRDNLGLKSAATMEAQSDIYDRTKGRLAIPGAFGFGCAFLPEDVIRFDTKSDFLAWVRNALPGEYSVAGPYGIIIPDTRFEGVLSIRWTDARPETTEPRYRAKSLTFYGINGPIYHTRYCYWPISRLTGWVKINITTEDIIYRIVASSVRNRWGDPDIGGLIIAAYQGEADGDKVIRLVRGQSYRGSRLGPVGISVPGTPTGTYIVSPQFFITGCSEHSLPGSYCALSGVPDAHVSGAMPGLFIRTSRGMHRGN	not soluble
MAKPSTSLLKRRLDIAEIVRKNGEIKVDDLAEMLSVSGVTIRNDLNYLEQQGYLKRSFGGAIYTAQPVRAAVSHEVVQSQALEHSVELELAKQVARLVCDDDTVFLGAGEVLRKALPFLGDYRDLCLIINDLSHVAPARDYIDGEIVLLGGVLGHSGQALGGEIAIQSLQQFQPSCCLVMVDHISEDGTLNVKNESAAALLSECLRLSGQSIAVVAQRPIHDVARYPVGKLNTLSAIITPQIVAAEYHSRFLADGLTNSYTNNECLTWINPTLHQARLEHHHHHH	not soluble
MGSDKIHHHHHHMTAIVEPTWEERRTPEAAHEDDARSQYRKDYSRIIHSAALRRLQTKTQVLGLGDSDFYRTRLTHSLEVAQIGVGILLEIQRRFAGSNIEKYLPDERLLEAICLSHDYGHPPFGHGGERALNFAMREYGGFEGNAQTFRILSKLEKYSQNSGLNPTRRTLLGVLKYPTTYSNSMTNDFRRGTDIDKYPDAELKPPKCIYDCDLDVLDWVLKIFCSEDVTEFKKLDYKCKPLHKSLDCSLMETADDIAYTVHDLEDCIKLKLINREMWDAYIKSADYSEATRLEIEKWNQRIFSKEGNLVKQGISNMVYFFIHSVIQYEHEELSHPILKYGFKLGEEAARLRSAIQKIITNEVIKTHRVRVLESKGQRMIFSIFGELVRDPESFLPRETLDKYNKATGNLRMRVICDYVSGMTDEYATKTYQRFFTPKFGSVFDV	not soluble
MEGLEAYDYHLPPEQIAQEGVEPRDMARLMVVYREGPFRVAHKRVRDLPEFLRPGDVLVFNESKVIPARLLARKPTGGKVEILLVRERSPGLWEALLGPARKAPPGTRLLLLSPKDLAPVPGLQAEVVAVEEDGVRLLRFQGDLVAHLEEVGEVPLPPYIKAKIPMERYQTVYARRPGSVAAPTAGLHFTPELLERLREMGVELRFLTLHVGPGTFRPVKGDPEKHEMHAEPYAIPEEVAEAVNRAKAEGRRVVAVGTTVVRALESAYREGVGVVAGEGETRLFIRPPYTFKVVDALFTNFHLPRSTLLMLVAAFLGRERTLEAYRLAVAEGYRFYSLGDAMLIL	soluble
